Source: patent publication US20240317840A1 (Novartis, published 2024)
Positions count from the first letter of the chain named.

B1: NOV2603 (antibody, human IgG1, kappa, V domains shown)
VH: QVQLVQSGAEVKKPGASVKVSCKASGYTFTSYYMHWVRQAPGQGLEWMGIISPSGGSTSYAQKFQGRVTMTRDTSTSTVYMELSSLRSEDTAVYYCARDWEGGDPYGYYYAFDYWGQGTLVTVSS
VL: not shown
notes: Full human IgG1 (kappa) expressed in CHO cells
B2: NOV3540 (antibody, human IgG1, kappa, V domains shown)
VH: EVQLLESGGGLVQPGGSLRLSCAASGFTFSPHAMSWVRQAPGKGLEWVSAISDSGGSTHYADSVKGRFTISRDNSKNTLYLQMNSLRAEDTAVYYCARDDDAWSGYDYWFDYWGQGTLVTVSS
VL: DIQMTQSPSSLSASVGDRVTITCRASQSISPYLNWYQQKPGKAPKLLIYAADSLQSGVPSRFSGSGSGTDFTLTISSLQPEDFATYYCQQSYKIPLTFGQGTKVEIKR
notes: as for B1
B3: NOV3832 (antibody, human IgG1, lambda, V domains shown)
VH: EMQVLESGGGLVQPGGSLRLSCAASGFTFDNYAMSWVRQVPGKGLEWVSSISGSGGSTYYADSVKGQFTISRDNSKNTLYLQMNSLRAEDTAVYYCAKSSILSGGHARVYGIDVWGQGTTVTVSS
VL: QSALTQPPSVSVAPGQTARITCGGNNIGSQSVHWYQQKPGQAPILVVYDDTDRPSGIPARFSGSSSGSTATLTIGRVEAGDEADYYCQVWDSSSDHVVFGGGTKLTVLS
notes: Full human IgG1 (lambda) expressed in CHO cells
B4: NOV3357 (antibody, human IgG1, kappa, V domains shown)
VH: B2 VH with A102G
VL: B2 VL
notes: as for B1
B5: NOV3212 (antibody, human IgG1, kappa, V domains shown)
VH: B1 VH with Y32L, Y33E, S52E
VL: not shown
notes: as for B1
B6: NOV3831 (antibody, human IgG1, lambda, V domains shown)
VH: B3 VH with D30N
VL: B3 VL
notes: as for B3
B7: NOV3833 (antibody, human IgG1, lambda, V domains shown)
VH: B3 VH with D30H
VL: B3 VL
notes: as for B3
B8: NOV3834 (antibody, human IgG1, kappa, V domains shown)
VH: QVQLVESGGGVVQPGRSLRLSCAASGFTFNRYGMHWVRQAPGKGLEWVAGIWHDGSHKYYADSLRGRFTISRDNAKNTLDLQLNRLRAEDTSVYYCVRQTNRGRLDDAFDIWGQGTMVTVSS
VL: DIQMTQSPSSLSAAVGDRVTISCRASQTISSYLNWYQQKPGEAPKLLIYAASTLQSGVPSRFGGSGSGTDFTLTISSLQPEDSATYYCQQNYDTLWTFGQGTKVEIKR
notes: as for B1
B9: NOV3836 (antibody, human IgG1, kappa, V domains shown)
VH: B8 VH with N30E, D54E
VL: B8 VL
B10: NOV3835 (antibody, human IgG1, kappa, V domains shown)
VH: B8 VH with N30D, D54E
VL: B8 VL

Each binder was assayed against HBsAg clinical mutation M133L (Hepatitis B virus) (assay: sandwich ELISA, mutant HBsAg from cell supernatant captured on horse polyclonal anti-HBsAg, antibody titrated, absorbance 450 nm).
With B1 the “EC50 (read off the curve)” value was about 0.07 nM.

These binders were tested against HBsAg clinical mutation T126S (Hepatitis B virus) in the same assay as above.
In the case of B1, the “EC50 (read off the curve)” value is reported as about 0.06 nM.

What follows are binders tested against T1, HBsAg AD serotype (Hepatitis B virus) (assay: SPR epitope binning; competitor (1st, saturating Ab): HBC34).
T1 construct: also called HBsAg serotype AD
Procedure: (§1) Epitope binning of anti-HBsAg antibodies with the two major serotypes of HBsAg, AY and AD, was performed utilizing surface plasmon resonance (SPR) technology. […] Each pair of antibodies was tested for blocking one another's binding to their epitope on the antigen by subsequently applying one antibody as first (saturating) followed by the other as second (competing) antibody and vice versa. Saturating antibodies were applied at 500 nM for 120s. Competing antibodies utilized the same conditions but were supplemented with the first antibody at 500 nM to maintain saturation. Binding signals were corrected by subtracting the reference cell signal. Specific binding of the competing antibody in presence of the saturating antibody was calculated by subtracting a saturating antibody plus buffer reference signal. All signals were normalized to 100 RU of immobilized ligand. The specific binding signal obtained from the application as competing antibody was expressed as percentage of the binding signal obtained from the application of the same antibody as saturating (first) antibody, the signal of which was regarded 100% binding.
For B2, the “binding of second antibody” value was 111 % of its binding as first antibody. In the case of B3, the “binding of second antibody” value is reported as 176 % of its binding as first antibody.

These binders were tested against T2, HBsAg AY serotype (Hepatitis B virus) in the same assay as above.
T2 construct: also called HBsAg serotype AY
Procedure: as §1
In the case of B2, the “binding of second antibody” value is reported as 102 % of its binding as first antibody. B3 was tested, and the “binding of second antibody” value was 113 % of its binding as first antibody.

What follows are binders tested against HBsAg clinical mutation M133L (Hepatitis B virus) (assay: sandwich ELISA, captured mutant HBsAg from culture supernatant;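 also: Anti-HBsAg antibodies tested for binding to mutant HBsAg secreted by stably transfected cell lines, supernatant incubated 1 h on antibody-coated plates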).
Procedure: (§2) The binding of anti-HBsAg antibodies to 4 well characterized vaccine and/or HBsAg clinical mutations of HBsAg (G145R, D144A, T126S, M133L) were analyzed by sandwich ELISA. […] Supernatant collected from HBsAg cell-culture derived clinical mutation stables (G145R, D144A, T126S, M133L) was allowed to bind antibody coated plates for 1 hour.
For B4, the IC50 was 0.67 nM. B2 showed an IC50 of 0.091 nM. B1 gave an IC50 of 0.072 nM. Binder B5 has an IC50 of 0.012 nM. B6 showed an IC50 of 0.0058 nM. B3 was tested, and the IC50 was 0.034 nM. B7 was tested, and the IC50 was 0.036 nM. B8 showed an IC50 of 9.2 nM.

What follows are binders tested against HBsAg clinical mutation G145R (Hepatitis B virus) in the same assay as above.
Procedure: as §2
Binder B4 has an IC50 of 5.5 nM. B2 gave an IC50 of 0.25 nM. Binder B1 has an IC50 of 0.33 nM. B5 showed an IC50 of 0.033 nM. For B6, the IC50 was over 67 nM. In the case of B3, the IC50 is reported as over 67 nM. In the case of B7, the IC50 is reported as over 67 nM.

The binders below were run against HBsAg clinical mutation T126S (Hepatitis B virus) in the same assay as above.
Procedure: as §2
B4 was tested, and the IC50 was 0.22 nM. B2 was tested, and the IC50 was 0.063 nM. In the case of B1, the IC50 is reported as 0.06 nM. B5 was tested, and the IC50 was 0.012 nM. B6 gave an IC50 of 0.0093 nM. Binder B3 has an IC50 of 0.034 nM. In the case of B7, the IC50 is reported as 0.025 nM. For B8, the IC50 was 7.4 nM.

These binders were tested against HBsAg clinical mutation D144A (Hepatitis B virus) in the same assay as above.
Procedure: as §2
B4 showed an IC50 of 2.1 nM. In the case of B2, the IC50 is reported as 0.16 nM. B1 gave an IC50 of 1.34 nM. B5 showed an IC50 of 0.079 nM. In the case of B6, the IC50 is reported as 3.6 nM. B3 showed an IC50 of 0.99 nM. For B7, the IC50 was 2.8 nM.

Biological target: HBsAg clinical mutation M133L (Hepatitis B virus)
Experiment: sandwich ELISA, mutant HBsAg from cell supernatant captured on horse polyclonal anti-HBsAg, antibody titrated, absorbance 450 nm
Remark: another data set of the same source
For B7, the “EC50 (read off the curve)” value was about 0.05 nM.

Biological target: HBsAg clinical mutation T126S (Hepatitis B virus)
Experiment: as above
Remark: another data set of the same source
In the case of B7, the “EC50 (read off the curve)” value is reported as about 0.04 nM.

Biological target: HBsAg clinical mutation M133L (Hepatitis B virus)
Experiment: as above
Remark: another data set of the same source
B6 was tested, and the “EC50 (read off the curve)” value was about 0.02 nM.

Biological target: HBsAg clinical mutation T126S (Hepatitis B virus)
Experiment: as above
Remark: another data set of the same source
In the case of B6, the “EC50 (read off the curve)” value is reported as about 0.02 nM.

Each binder was assayed against T1, HBsAg AD serotype (assay: SPR Biacore T200, HBsAg particles immobilized, antibody as analyte, 1:1 fit;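 also: Anti-HBsAg antibodies assessed for binding against both major HBsAg serotypes, AY and AD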).
Procedure: (§3) Binding affinity interaction (KD) of the anti-HBsAg antibodies with the two major serotypes of HBsAg, AY and AD, was determined utilizing surface plasma resonance (SPR) technology.
B4 showed a Kd of 0.18 nM. With B2 the Kd was 0.39 nM. B1 showed a Kd of 15.5 nM. Work on B5 yielded a Kd of 1.1 nM. For B6, the Kd was 0.67 nM. B3 was tested, and the Kd was 0.22 nM. With B7 the Kd was 0.33 nM. For B8, the Kd was 40 nM.

These binders were tested against T2, HBsAg AY serotype in the same assay as above.
Procedure: as §3
B4 was tested, and the Kd was 0.11 nM. B2 gave a Kd of 0.25 nM. B1 gave a Kd of 3.1 nM. B5 was tested, and the Kd was 0.6 nM. In the case of B6, the Kd is reported as 0.59 nM. B3 was tested, and the Kd was 0.4 nM. In the case of B7, the Kd is reported as 0.26 nM. B8 was tested, and the Kd was 5.3 nM.

Biological target: HBsAg clinical mutation M133L (Hepatitis B virus)
Experiment: sandwich ELISA, mutant HBsAg from cell supernatant captured on horse polyclonal anti-HBsAg, antibody titrated, absorbance 450 nm
Remark: another data set of the same source
For B3, the “EC50 (read off the curve)” value was about 0.05 nM.

Biological target: HBsAg clinical mutation T126S (Hepatitis B virus)
Experiment: as above
Remark: another data set of the same source
For B3, the “EC50 (read off the curve)” value was about 0.05 nM.

The binders below were run against T1, HBsAg AD serotype (assay: SPR epitope binning; competitor (1st, saturating Ab): CR8087).
Procedure: as §1
For B2, the “binding of second antibody” value was 254 % of its binding as first antibody. B3 was tested, and the “binding of second antibody” value was 223 % of its binding as first antibody.

What follows are binders tested against T2, HBsAg AY serotype in the same assay as above.
Procedure: as §1
With B2 the “binding of second antibody” value was 118 % of its binding as first antibody. For B3, the “binding of second antibody” value was 117 % of its binding as first antibody.

Biological target: HBsAg clinical mutation T126S (Hepatitis B virus)
Experiment: sandwich ELISA, mutant HBsAg from cell supernatant captured on horse polyclonal anti-HBsAg, antibody titrated, absorbance 450 nm
Remark: another data set of the same source
In the case of B5, the “EC50 (read off the curve)” value is reported as about 0.02 nM.

Each binder was assayed against HBsAg clinical mutation D144A (Hepatitis B virus) in the same assay as above.
In the case of B5, the “EC50 (read off the curve)” value is reported as about 0.1 nM.

Each binder was assayed against HBsAg of HBV genotype D, serotype ayw (Hepatitis B virus) (assay: cell-based or functional assay).
For B4, the “Virus neutralization EC50” value was 0.056 nM. For B2, the “Virus neutralization EC50” value was 0.085 nM. For B1, the “Virus neutralization EC50” value was 0.14 nM. B5 was tested, and the “Virus neutralization EC50” value was 0.11 nM. In the case of B6, the “Virus neutralization EC50” value is reported as 0.026 nM. In the case of B3, the “Virus neutralization EC50” value is reported as 0.26 nM. For B7, the “Virus neutralization EC50” value was 0.27 nM. For B9, the “Virus neutralization EC50” value was 0.017 nM. B8 was tested, and the “Virus neutralization EC50” value was 0.24 nM. In the case of B10, the “Virus neutralization EC50” value is reported as 0.72 nM.

Biological target: HBsAg clinical mutation M133L (Hepatitis B virus)
Experiment: sandwich ELISA, mutant HBsAg from cell supernatant captured on horse polyclonal anti-HBsAg, antibody titrated, absorbance 450 nm
Remark: another data set of the same source
B2 was tested, and the “EC50 (read off the curve)” value was about 0.08 nM.

What follows are binders tested against HBsAg clinical mutation G145R (Hepatitis B virus) in the same assay as above.
In the case of B2, the “EC50 (read off the curve)” value is reported as about 0.3 nM.

Biological target: HBsAg clinical mutation T126S (Hepatitis B virus)
Experiment: as above
Remark: another data set of the same source
For B2, the “EC50 (read off the curve)” value was about 0.08 nM.

Biological target: HBsAg clinical mutation D144A (Hepatitis B virus)
Experiment: as above
Remark: another data set of the same source
B2 was tested, and the “EC50 (read off the curve)” value was about 0.2 nM.

Biological target: HBsAg clinical mutation M133L (Hepatitis B virus)
Experiment: as above
Remark: another data set of the same source
For B4, the “EC50 (read off the curve)” value was about 0.1 nM.

Biological target: HBsAg clinical mutation T126S (Hepatitis B virus)
Experiment: as above
Remark: another data set of the same source
With B4 the “EC50 (read off the curve)” value was about 0.1 nM.

What follows are binders tested against HBsAg of HBV genotype C (DQ087960) (Hepatitis B virus) (assay: sandwich ELISA, captured HBsAg from culture supernatant).
Procedure: (§4) The binding of anti-HBsAg antibodies to the 4 major genotypes (A-D) of HBV were analyzed by sandwich ELISA.
B4 showed an IC50 of 0.016 nM. B2 was tested, and the IC50 was 0.1 nM. B1 gave an IC50 of 3.6 nM. Binder B5 has an IC50 of 0.068 nM. B6 showed an IC50 of 0.031 nM. B3 gave an IC50 of 0.015 nM. Work on B7 yielded an IC50 of 0.12 nM. Work on B8 yielded an IC50 of 16 nM.

The binders below were run against HBsAg of HBV genotype B (AF 121245) (Hepatitis B virus) in the same assay as above.
Procedure: as §4
In the case of B4, the IC50 is reported as 0.017 nM. B2 gave an IC50 of 0.059 nM. B1 gave an IC50 of 1.5 nM. With B5 the IC50 was 0.045 nM. With B6 the IC50 was 0.015 nM. B3 was tested, and the IC50 was 0.02 nM. B7 showed an IC50 of 0.12 nM. With B8 the IC50 was 1.2 nM.

These binders were tested against T3, HBsAg of HBV genotype A (AY934772) (Hepatitis B virus) in the same assay as above.
T3 construct: captured from supernatant by horse polyclonal anti-HBsAg
Procedure: as §4
B4 gave an IC50 of 0.03 nM. B2 was tested, and the IC50 was 0.1 nM. With B1 the IC50 was 2.3 nM. B5 was tested, and the IC50 was 0.23 nM. For B6, the IC50 was 0.69 nM. In the case of B3, the IC50 is reported as 0.05 nM. With B7 the IC50 was 0.56 nM. With B8 the IC50 was 2 nM.
